B3: Kapβ2(ΔLoop) (natural protein)
chain: MEYEWKPDEQGLQQILQLLKESQSPDTTIQRTVQQKLEQLNQYPDFNNYLIFVLTKLKSEDEPTRSLSGLILKNNVKAHFQNFPNGVTDFIKSECLNNIGDSSPLIRATVGILITTIASKGELQNWPDLLPKLCSLLDSEDYNTCEGAFGALQKICEDSAEILDSDVLDRPLNIMIPKFLQFFKHSSPKIRSHAVACVNQFIISRTQALMLHIDSFIENLFALAGDEEPEVRKNVCRALVMLLEVRMDRLLPHMHNIVEYMLQRTQDQDENVALEACEFWLTLAEQPICKDVLVRHLPKLIPVLVNGMKYSDIDIILLKGGGSGGSGSDWNLRKCSAAALDVLANVYRDELLPHILPLLKELLFHHEWVVKESGILVLGAIAEGCMQGMIPYLPELIPHLIQCLSDKKALVRSITCWTLSRYAHWVVSQPPDTYLKPLMTELLKRILDSNKRVQEAACSAFATLEEEACTELVPYLAYILDTLVFAFSKYQHKNLLILYDAIGTLADSVGHHLNKPEYIQMLMPPLIQKWNMLKDEDKDLFPLLECLSSVATALQSGFLPYCEPVYQRCVNLVQKTLAQAMLNNAQPDQYEAPDKDFMIVALDLLSGLAEGLGGNIEQLVARSNILTLMYQCMQDKMPEVRQSSFALLGDLTKACFQHVKPCIADFMPILGTNLNPEFISVCNNATWAIGEISIQMGIEMQPYIPMVLHQLVEIINRPNTPKTLLENTAITIGRLGYVCPQEVAPMLQQFIRPWCTSLRNIRDNEEKDSAFRGICTMISVNPSGVIQDFIFFCDAVASWINPKDDLRDMFCKILHGFKNQVGDENWRRFSDQFPLPLKERLAAFYGV

Columns and labels:
Kapβ2 [1] = biological target: T1, Kapβ2 (UniProt Q92973-2 1-890); assay: NMR titration
T1 sequence: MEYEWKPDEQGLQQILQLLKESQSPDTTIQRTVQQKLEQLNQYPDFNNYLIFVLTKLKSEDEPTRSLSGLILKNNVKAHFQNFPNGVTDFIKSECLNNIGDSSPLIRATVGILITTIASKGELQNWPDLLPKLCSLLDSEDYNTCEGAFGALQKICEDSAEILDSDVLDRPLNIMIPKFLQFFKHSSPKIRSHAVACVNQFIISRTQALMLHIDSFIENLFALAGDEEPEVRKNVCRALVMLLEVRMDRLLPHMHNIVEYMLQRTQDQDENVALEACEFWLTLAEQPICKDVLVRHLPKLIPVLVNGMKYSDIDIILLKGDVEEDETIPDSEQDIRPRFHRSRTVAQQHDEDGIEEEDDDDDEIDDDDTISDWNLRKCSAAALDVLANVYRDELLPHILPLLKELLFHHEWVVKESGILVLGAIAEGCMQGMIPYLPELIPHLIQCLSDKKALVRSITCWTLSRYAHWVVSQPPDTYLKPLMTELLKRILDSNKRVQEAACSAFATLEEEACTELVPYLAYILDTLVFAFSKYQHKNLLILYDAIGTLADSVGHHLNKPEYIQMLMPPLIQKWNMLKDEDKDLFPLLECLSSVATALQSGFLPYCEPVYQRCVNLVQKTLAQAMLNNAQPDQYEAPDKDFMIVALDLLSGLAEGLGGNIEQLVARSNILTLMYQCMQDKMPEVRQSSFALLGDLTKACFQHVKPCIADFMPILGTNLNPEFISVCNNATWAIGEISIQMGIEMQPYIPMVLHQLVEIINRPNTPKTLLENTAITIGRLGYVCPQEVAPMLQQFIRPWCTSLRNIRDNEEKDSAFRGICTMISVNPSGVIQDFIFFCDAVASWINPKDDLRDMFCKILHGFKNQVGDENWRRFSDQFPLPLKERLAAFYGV

Kapβ2 [2] = biological target: T1, Kapβ2; assay: hydrogel binding assay
FUS-LC fused to mCherry = biological target: T2, FUS-LC fused to mCherry (UniProt P35637 2-214); assay: hydrogel binding assay
T2 sequence: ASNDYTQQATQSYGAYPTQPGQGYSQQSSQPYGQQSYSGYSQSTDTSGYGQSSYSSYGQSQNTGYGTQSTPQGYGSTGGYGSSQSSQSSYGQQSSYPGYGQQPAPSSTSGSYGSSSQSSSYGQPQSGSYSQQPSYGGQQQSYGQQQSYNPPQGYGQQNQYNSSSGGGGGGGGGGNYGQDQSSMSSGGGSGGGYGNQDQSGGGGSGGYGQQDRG

MBP-FUS = biological target: T3, MBP-FUS (UniProt P35637 1-526); assay: ITC
T3 sequence: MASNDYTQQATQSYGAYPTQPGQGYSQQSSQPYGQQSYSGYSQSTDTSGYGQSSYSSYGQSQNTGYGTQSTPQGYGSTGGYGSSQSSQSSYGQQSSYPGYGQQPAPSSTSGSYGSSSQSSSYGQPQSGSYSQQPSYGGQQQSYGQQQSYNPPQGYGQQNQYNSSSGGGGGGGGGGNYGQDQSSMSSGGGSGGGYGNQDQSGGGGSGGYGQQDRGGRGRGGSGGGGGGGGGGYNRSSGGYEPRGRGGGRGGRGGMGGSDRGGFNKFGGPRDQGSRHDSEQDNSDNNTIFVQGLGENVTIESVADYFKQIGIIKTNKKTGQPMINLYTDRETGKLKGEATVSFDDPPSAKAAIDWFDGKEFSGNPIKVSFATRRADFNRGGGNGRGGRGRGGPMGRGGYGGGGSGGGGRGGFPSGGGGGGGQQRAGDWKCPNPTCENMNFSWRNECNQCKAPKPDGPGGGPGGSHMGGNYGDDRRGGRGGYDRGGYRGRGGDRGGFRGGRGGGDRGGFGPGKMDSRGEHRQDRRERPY

Kapβ2 [3] = biological target: T1, Kapβ2; assay: pull-down
Kapβ2(ΔLoop) = biological target: B3; assay: ITC
GST-Kapβ2 = biological target: T4, GST-Kapβ2 (UniProt Q92973-2 1-890); assay: pull-down
T4 sequence: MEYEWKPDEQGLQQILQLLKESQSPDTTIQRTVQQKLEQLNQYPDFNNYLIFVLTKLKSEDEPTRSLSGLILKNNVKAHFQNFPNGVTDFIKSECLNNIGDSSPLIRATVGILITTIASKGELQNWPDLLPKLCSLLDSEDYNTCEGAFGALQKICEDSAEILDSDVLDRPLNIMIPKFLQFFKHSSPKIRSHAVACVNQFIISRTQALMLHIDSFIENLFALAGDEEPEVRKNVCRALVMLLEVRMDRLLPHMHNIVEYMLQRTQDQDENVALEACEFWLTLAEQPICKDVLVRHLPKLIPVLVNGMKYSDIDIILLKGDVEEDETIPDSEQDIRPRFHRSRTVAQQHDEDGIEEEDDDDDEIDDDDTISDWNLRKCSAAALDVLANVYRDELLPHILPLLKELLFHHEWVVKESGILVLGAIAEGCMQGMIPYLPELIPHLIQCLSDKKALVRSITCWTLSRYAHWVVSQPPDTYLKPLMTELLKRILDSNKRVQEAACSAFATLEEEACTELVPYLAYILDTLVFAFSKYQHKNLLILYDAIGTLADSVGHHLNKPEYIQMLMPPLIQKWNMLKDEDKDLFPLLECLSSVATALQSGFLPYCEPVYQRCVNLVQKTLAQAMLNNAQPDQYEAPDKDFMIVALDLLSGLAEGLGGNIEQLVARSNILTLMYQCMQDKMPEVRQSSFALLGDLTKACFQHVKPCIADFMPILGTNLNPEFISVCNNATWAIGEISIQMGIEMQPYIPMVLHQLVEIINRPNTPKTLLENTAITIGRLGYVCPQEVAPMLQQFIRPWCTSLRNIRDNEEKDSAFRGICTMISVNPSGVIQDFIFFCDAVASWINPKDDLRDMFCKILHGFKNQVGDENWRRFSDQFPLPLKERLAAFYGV

Binder: PRPRPRPRPRPRPRPRPRPRPRPRPRPRPRPRPRPRPRPR [(Pro-Arg)20-HA]
- binding result (Kapβ2 [1]): binds

B1: GFP:hnRNPA2-LC (domain or fragment)
chain: MQEVQSSRSGRGGNFGFGDSRGGGGNFGPGPGSNFRGGSDGYGSGRGFGDGYNGYGGGPGGGNFGGSPGYGGGRGGYGGGGPGYGNQGGGYGGGYDNYGGGNYGSGNYNDFGNYNQQPSNYGPMKSGNFGGSRNMGGPYGGGNYGPGGSGGSGGYGGRSRY
- binding result (Kapβ2 [2]): binds

B2: GFP:FUS-LC (domain or fragment)
chain: ASNDYTQQATQSYGAYPTQPGQGYSQQSSQPYGQQSYSGYSQSTDTSGYGQSSYSSYGQSQNTGYGTQSTPQGYGSTGGYGSSQSSQSSYGQQSSYPGYGQQPAPSSTSGSYGSSSQSSSYGQPQSGSYSQQPSYGGQQQSYGQQQSYNPPQGYGQQNQYNSSSGGGGGGGGGGNYGQDQSSMSSGGGSGGGYGNQDQSGGGGSGGYGQQDRG
- binding result (FUS-LC fused to mCherry): binds

Binder: B3
- binding result (MBP-FUS): binds

B4: FUS(1-500) (domain or fragment)
chain: MASNDYTQQATQSYGAYPTQPGQGYSQQSSQPYGQQSYSGYSQSTDTSGYGQSSYSSYGQSQNTGYGTQSTPQGYGSTGGYGSSQSSQSSYGQQSSYPGYGQQPAPSSTSGSYGSSSQSSSYGQPQSGSYSQQPSYGGQQQSYGQQQSYNPPQGYGQQNQYNSSSGGGGGGGGGGNYGQDQSSMSSGGGSGGGYGNQDQSGGGGSGGYGQQDRGGRGRGGSGGGGGGGGGGYNRSSGGYEPRGRGGGRGGRGGMGGSDRGGFNKFGGPRDQGSRHDSEQDNSDNNTIFVQGLGENVTIESVADYFKQIGIIKTNKKTGQPMINLYTDRETGKLKGEATVSFDDPPSAKAAIDWFDGKEFSGNPIKVSFATRRADFNRGGGNGRGGRGRGGPMGRGGYGGGGSGGGGRGGFPSGGGGGGGQQRAGDWKCPNPTCENMNFSWRNECNQCKAPKPDGPGGGPGGSHMGGNYGDDRRGGRGGYDRGGYRGRGGDRGGFRGGRGG
- binding result (Kapβ2 [1]): binds

Binder: PRPRPRPRPRPRPRPRPRPRPRPRPRPRPRPRPRPR [GST-PR18]
- binding result (Kapβ2 [3]): binds

Binder: PRPRPRPRPRPRPRPRPRPRPRPRPRPRPRPRPRPR [MBP-PR18]
- Kd (Kapβ2(ΔLoop)): 81.3 nM
- stoichiometry N (Kapβ2(ΔLoop)): 1
- binding result (GST-Kapβ2): binds
